Experimental data: patent US20180244758A1

B1: mAb PE-87 (antibody, V domains shown)
VH: QVQLVQSGVTLVQPGGSLRVSCAASGFTFSSYAMSWVRQAPGKGLEWVSAISGLGGSTYYADSVKGRFTISRDNSKNTLYLQMNSLRAEDTAVYYCAKDHRVWAAGYHFDYWGQGALVTVSS
VL: DIVLTQSPSTLSASVGDRVTITCRASQSISSWLAWYQQKPGEAPKLLISDASSLESGVPSRFSGSGSGTEFTLTISSLQPDDFATYYCQQYYSSPTFGGGTKVEIK
B2: mAb PE-64 (antibody, V domains shown)
VH: EVQLVESGGGLVKPGGSLRLSCAASGFTFSNAWMSWVRQAPGKGLEWVGRIKSKTDGGTIDYAAPVKGRFTISRDDSKNTVYLQMTSLKTEDTAVYYCTTYTEDMRYFDWLLRGGETFDYWGQGTLVTVSS
VL: DIRLTQSPSSLSASVGDRVTITCRASHYISTYLNWYQQKPGKAPKLLIYAASNLQSGVPSRFSGSGFGTDFSLTISSLQPEDFATYHCQQSYSTPGRYTFGQGTKVEIK

Experiments:
[1] = target: EBOV GPCL (cleaved GP) (Ebola virus (EBOV)) (UniProt Q05320)
[2] = target: GP of authentic (wild-type) SUDV (Sudan virus (SUDV)) (UniProt Q66814); experiment: cell-based or functional assay
[3] = target: BDBV GP on rVSV particles (Bundibugyo virus (BDBV)); experiment: cell-based or functional assay
[4] = target: GP of authentic (wild-type) BDBV (Bundibugyo virus (BDBV)); experiment: cell-based or functional assay
[5] = target: SUDV GP on rVSV particles (Sudan virus (SUDV)) (UniProt Q66814); experiment: cell-based or functional assay
[6] = target: EBOV GP on rVSV particles (Ebola virus (EBOV)) (UniProt Q05320); experiment: cell-based or functional assay
[7] = target: GP of authentic (wild-type) EBOV (Ebola virus (EBOV)) (UniProt P87666); experiment: cell-based or functional assay
[8] = target: TAFV GP on VSV pseudotype particles (Tai Forest virus (TAFV)) (UniProt Q66810); experiment: cell-based or functional assay
Chain of TAFV GP on VSV pseudotype particles (Tai Forest virus (TAFV)) (Q66810 33-676): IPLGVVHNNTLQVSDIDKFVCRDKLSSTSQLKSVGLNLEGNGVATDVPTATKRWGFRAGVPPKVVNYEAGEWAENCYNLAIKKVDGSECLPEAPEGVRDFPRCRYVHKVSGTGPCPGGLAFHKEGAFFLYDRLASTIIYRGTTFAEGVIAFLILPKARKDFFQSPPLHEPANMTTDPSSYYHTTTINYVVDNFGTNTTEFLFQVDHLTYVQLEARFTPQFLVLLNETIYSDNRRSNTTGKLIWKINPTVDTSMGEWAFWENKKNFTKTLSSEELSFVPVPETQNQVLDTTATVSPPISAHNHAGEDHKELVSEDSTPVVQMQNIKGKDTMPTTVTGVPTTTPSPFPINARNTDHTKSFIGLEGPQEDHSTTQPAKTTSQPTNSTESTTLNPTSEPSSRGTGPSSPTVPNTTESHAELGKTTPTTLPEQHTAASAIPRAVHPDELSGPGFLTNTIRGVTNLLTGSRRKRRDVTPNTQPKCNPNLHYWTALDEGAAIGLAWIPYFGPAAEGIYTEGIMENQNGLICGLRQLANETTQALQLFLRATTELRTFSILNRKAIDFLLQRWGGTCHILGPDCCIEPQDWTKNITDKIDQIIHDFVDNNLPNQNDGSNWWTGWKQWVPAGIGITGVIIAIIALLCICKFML

Chain of EBOV GP on rVSV particles (Ebola virus (EBOV)) (Q05320 33-676): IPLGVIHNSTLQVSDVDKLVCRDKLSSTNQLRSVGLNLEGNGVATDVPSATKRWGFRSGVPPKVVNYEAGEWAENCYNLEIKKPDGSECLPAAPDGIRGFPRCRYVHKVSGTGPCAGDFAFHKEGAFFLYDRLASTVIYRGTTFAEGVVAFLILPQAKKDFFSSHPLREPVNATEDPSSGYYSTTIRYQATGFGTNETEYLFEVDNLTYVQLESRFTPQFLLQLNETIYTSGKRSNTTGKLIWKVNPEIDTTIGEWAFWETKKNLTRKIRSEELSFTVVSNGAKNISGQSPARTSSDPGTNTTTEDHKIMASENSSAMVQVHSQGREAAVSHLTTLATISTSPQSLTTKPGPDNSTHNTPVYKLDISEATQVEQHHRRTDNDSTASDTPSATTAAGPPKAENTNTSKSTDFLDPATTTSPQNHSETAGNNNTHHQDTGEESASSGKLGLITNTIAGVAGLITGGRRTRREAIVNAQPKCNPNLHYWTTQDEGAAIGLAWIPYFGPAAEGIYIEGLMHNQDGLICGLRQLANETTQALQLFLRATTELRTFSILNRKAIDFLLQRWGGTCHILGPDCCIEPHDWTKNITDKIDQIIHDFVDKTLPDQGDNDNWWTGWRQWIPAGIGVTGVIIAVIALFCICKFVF
Chain of GP of authentic (wild-type) EBOV (Ebola virus (EBOV)) (P87666 33-676): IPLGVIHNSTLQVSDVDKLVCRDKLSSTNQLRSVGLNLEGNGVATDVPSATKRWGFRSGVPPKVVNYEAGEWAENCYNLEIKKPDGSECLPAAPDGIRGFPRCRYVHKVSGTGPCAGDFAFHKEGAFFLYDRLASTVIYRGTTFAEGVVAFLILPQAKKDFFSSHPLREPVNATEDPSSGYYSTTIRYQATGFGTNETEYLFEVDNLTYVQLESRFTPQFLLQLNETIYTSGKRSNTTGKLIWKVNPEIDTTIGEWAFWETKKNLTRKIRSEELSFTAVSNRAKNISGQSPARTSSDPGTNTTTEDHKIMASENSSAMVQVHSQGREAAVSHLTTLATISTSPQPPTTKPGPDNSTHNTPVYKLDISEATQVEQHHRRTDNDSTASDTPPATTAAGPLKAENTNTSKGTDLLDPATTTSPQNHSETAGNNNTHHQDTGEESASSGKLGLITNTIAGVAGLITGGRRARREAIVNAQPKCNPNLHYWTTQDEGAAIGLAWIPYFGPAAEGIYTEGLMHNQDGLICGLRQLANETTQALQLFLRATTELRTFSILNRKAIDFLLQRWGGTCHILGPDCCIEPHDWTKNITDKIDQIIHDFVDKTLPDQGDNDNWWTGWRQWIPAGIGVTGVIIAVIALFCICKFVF
Chain of SUDV GP on rVSV particles (Sudan virus (SUDV)) (Q66814 33-676): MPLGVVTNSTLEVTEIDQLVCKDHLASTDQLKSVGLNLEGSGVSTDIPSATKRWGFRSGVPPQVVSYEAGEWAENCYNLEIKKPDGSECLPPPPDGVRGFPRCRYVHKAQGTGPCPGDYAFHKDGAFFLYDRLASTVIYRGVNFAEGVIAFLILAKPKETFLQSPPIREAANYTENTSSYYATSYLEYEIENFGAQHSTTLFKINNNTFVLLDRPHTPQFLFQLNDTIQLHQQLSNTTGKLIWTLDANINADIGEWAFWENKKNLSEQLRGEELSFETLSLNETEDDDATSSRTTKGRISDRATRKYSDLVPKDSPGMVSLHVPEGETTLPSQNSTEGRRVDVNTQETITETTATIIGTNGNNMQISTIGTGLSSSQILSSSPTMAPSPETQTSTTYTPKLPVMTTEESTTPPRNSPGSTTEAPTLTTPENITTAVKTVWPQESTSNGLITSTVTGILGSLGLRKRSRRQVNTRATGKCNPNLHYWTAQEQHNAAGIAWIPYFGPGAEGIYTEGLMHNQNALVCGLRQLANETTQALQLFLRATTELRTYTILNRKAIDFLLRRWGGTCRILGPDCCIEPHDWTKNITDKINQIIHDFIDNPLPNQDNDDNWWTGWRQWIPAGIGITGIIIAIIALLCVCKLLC
Chain of GP of authentic (wild-type) SUDV (Sudan virus (SUDV)) (Q66814 33-676): as above
Chain of EBOV GPCL (cleaved GP) (Ebola virus (EBOV)) (Q05320 33-190 limits assumed, chain 1 of 2): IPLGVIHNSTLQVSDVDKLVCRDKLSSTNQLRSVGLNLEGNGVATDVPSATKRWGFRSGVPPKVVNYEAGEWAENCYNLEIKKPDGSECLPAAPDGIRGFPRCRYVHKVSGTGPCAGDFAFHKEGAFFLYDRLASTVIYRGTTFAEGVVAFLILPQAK
Chain of EBOV GPCL (cleaved GP) (Ebola virus (EBOV)) (Q05320 502-637 limits assumed, chain 2 of 2): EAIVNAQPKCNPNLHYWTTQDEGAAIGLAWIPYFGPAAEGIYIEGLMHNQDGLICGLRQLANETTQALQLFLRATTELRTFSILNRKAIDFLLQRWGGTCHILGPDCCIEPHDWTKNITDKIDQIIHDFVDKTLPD

Row | Binder | Kd [1] [nM] | Authentic virus neutralization IC50 [2] [nM] | rVSV-GP neutralization IC50 [3] [nM] | Authentic virus neutralization IC50 [4] [nM] | rVSV-GP neutralization IC50 [5] [nM] | rVSV-GP neutralization IC50 [6] [nM] | Authentic virus neutralization IC50 [7] [nM] | rVSV-GP neutralization IC50 [8] [nM]
1 | B1 | < 0.001 | – | – | – | – | – | – | –
2 | B2 | – | 120 | 0.4 | 1.5 | 40 | 2.5 | 0.6 | 8
